PMC6411835

Target: T1, Zip2(499-704);Spo16 (Saccharomyces cerevisiae;Saccharomyces cerevisiae) (UniProt P53061+P17122)
T1 sequence 1: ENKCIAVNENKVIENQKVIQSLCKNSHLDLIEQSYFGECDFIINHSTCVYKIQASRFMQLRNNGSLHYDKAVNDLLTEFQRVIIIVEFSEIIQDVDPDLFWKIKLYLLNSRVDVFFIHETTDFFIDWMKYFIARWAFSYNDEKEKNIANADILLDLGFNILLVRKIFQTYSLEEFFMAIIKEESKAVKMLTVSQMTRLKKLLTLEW
T1 sequence 2: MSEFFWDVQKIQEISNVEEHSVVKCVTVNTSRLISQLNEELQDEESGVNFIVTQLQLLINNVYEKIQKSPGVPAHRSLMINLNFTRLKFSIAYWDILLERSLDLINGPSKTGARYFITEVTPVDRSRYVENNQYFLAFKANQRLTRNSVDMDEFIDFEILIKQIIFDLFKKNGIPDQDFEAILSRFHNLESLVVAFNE
Experiment: EMSA

**Q.** With nicked Holliday Junction as the substance, how does the Kd read?
**A.** The Kd was 5 µM.
